Reference: patent US20180186871A1 (SINGAPORE HEALTH SERVICES PTE, published 2018)

T1: FLAG-tagged human IL-11 expressed at the cell surface (human, UniProt P20809 22-199)
T1 construct: whole, on cells; also called IL-11 expressing HEK cells; target cells expressing human IL-11 at their surface; not shown: how the protein is held at
T1 sequence (looked up): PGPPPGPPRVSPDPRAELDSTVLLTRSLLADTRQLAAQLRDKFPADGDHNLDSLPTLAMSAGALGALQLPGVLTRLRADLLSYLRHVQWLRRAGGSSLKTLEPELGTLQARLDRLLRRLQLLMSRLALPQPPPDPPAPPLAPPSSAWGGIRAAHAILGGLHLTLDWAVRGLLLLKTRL

T2: human IL-11 (human, UniProt P20809 22-199)
T2 construct: In the ELISAs this is recombinant human IL-11 coated on the plate (expressed in CHO cells as Fc-tagged and tag-free versions); In the fibroblast assays it is the IL-11 produced by human fibroblasts after TGFβ1 stimulation; also called recombinant human IL-11 (GenScript Cat. No. Z03108-1); interleukin 11
T2 sequence (looked up): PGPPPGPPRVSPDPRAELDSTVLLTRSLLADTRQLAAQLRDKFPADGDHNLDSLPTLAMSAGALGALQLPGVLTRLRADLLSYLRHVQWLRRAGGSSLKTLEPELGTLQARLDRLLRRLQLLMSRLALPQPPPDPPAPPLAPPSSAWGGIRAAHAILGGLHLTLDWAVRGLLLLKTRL


How the values were obtained:
[1] = target: T1, FLAG-tagged human IL-11 expressed at …; experiment: flow cytometry of hybridoma subclone supernatants on cells transfected with pB1-IL11-hum.FL (FLAG-tagged human IL-11 at the cell surface), anti-mouse IgG detection; sheet says 'flow cytometry (Attunes)', legend says iQue
human IL-11 [2] = target: T2, human IL-11; experiment: ELISA binding signal
human IL-11 [3] = target: T2, human IL-11; experiment: cell-based or functional assay
human IL-11 [4] = target: T2, human IL-11; experiment: ELISA on coated recombinant human IL-11, scFv-Fc dilution series

Row | % positive (anti-FLAG positive control = 100%) [1] | hIL11 - average signal (human IL-11 [2]) | MMP2 production (ng/ml), TGFB1-stimulated human atrial fibroblasts, Experiment 1 (NEG 42.7, POS 70.2) (human IL-11 [3]) | MMP2 production (ng/ml), TGFB1-stimulated human atrial fibroblasts, Experiment 2 (NEG 36.2, POS 62.3) (human IL-11 [3]) | EC50 (human IL-11 [4]) | Binder
1 | 188% | – | – | – | – | BSN-5B8 (antibody, V domains shown, mouse monoclonal anti-human IL-11 antibody from a hybridoma; also called A9) VH: QVQLQQSGAELARPGTSVKLSCKASGYTFTSYGISWVKQRTGQGLEWIGEIYPRSSNTYYNEKFKGKATLTADKSSSTAYMELRSLTSEDSADYFCARANWVGYFDVWGTGTTVTVSS VL: DIVMTQSHKFMSTSVGDRVTITCKASQDVGTAVAWYQQKPGQSPKLLIYWASTRLTGVPDRFTGSGSGTYFTLTINNVQSEDLADYFCQQYSSYRTFGGGTKLEIK
2 | – | 0.319 | 44.5 ng/mL | 37.6 ng/mL | 0.027 µg/mL | YU100-F11 (scFv, light chain-shuffled human anti-IL-11 clone) scFv: QVQLVESGGGVVQPGRSLRLSCAASGFTFSSYGMHWVRQAPGKGLEWVAVISYDGSNKYYADSVKGRFTISRDNSKNTLYLQMNSLRAEDTAVYYCAKIGATDPLDYWGQGTLVTVSSGSASAPKLEEGEFSEARVQSALTQPASVSGSPGQSITISCTGSSSDVAGYNYVSWYQQHPGKAPKLMIYDVTKRPSGVPDRFSGSKSGNTASLTISGLQAEDEADYYCCSYAGSYTWVFGGGTQLTVL
3 | – | 0.153 | 42.3 ng/mL | 38 ng/mL | 0.028 µg/mL | YU100-G08 (scFv, light chain-shuffled human anti-IL-11 clone) scFv: QVQLVQSGGGVVQPGRSLRLSCAASGFTFSSYGMHWVRQAPGKGLEWVAVISYDGSNKYYADSVKGRFTISRDNSKNTLYLQMNSLRAEDTAVYYCAKIGATDPLDYWGQGTLVTVSSGSASAPKLEEGEFSEARVQSALTQPRSVSGSPGQSVTLSCTGTSSDVGGYNYVSWYQHYPGKAPKLMIFDVNERSSGVPDRFSGSKSGNTASLTISGLQAEDEADYYCCSYAGRYTWMFGGGTKVTVL
4 | 176% | – | – | – | – | BSN-3C6 (antibody, V domains shown) VH: EVQLQQSGPELVKPGASVKIPCKASGYTFTDYNMDWVKQSHGKSLEWIGDINPHNGGPIYNQKFTGKATLTVDKSSSTAYMELRSLTSEDTAVYYCARGELGHWYFDVWGTGTTVTVSS VL: DIVLTQSPASLAVSLGQRATISCRASKSVSTSGYSYIHWYQQKPGQPPKLLIYLASNLDSGVPARFSGSGSGTDFTLNIHPVEEEDAATYYCQHSRDLPPTFGGGTKLEIK
5 | 176% | – | – | – | – | BSN-7D4 (antibody, V domains shown) VH: EVQLQQSGPELVKPGASVKISCKASGYTFTDYNMDWVKQSQGKRLEWIGDINPNYGGTIYNQKFKGKATLTVDKSSSTAYMELRSLTSEDTTVYYCTRGELGHWYFDVWGTGTTVTVSS VL: DIVLTQSPPSLTVSLGQRATISCRASKSVSASGYSYMHWYQQKPGQPPKLLIYLTSNLESGVPARFSGSGSGTDFTLNIHPVEEEDAATYYCQHSWDLPPTFGGGTKLEIK
6 | 190% | – | – | – | – | BSN-8H11 (antibody, V domains shown) VH: EVQLQQSGPELVKPGASVKIPCKASGYTFTDYNIDWVKQSHGKSLEWIGDINPNYGGTLYNQKFKGKATLTVDKSSSTAYMELRSLTSEDTAVYYCARGELGHWYFDVWGTGTTVTVSS VL: DIVLTQSPASLAVSLGQRATISCRASKSVSTSDYSYMHWYQQKPGHPPKLLIYLASNLESGVPARFSGSGSGTDFTLNIHPVEEEDAATYFCQHSRDLPPTFGGGTKLEIK
7 | – | 0.43 | 48.3 ng/mL | 42.2 ng/mL | 0.053 µg/mL | YU100-H01 (scFv, light chain-shuffled human anti-IL-11 clone) scFv: QVQLVQSGGGVVQPGRSLRLSCAASGFTFSSYAMHWVRQAPGKGLEWVAVISYDGSNKYYADSVKGRFTISRDNSKNTLYLQMNSLRAEDTAVYYCARIMGYDYGDYDVVDYWGQGTLVTVSSGSASAPKLEEGEFSEARVQSALTQPRSVSGSPGQSVTISCTGTSSDVGAYNYVSWYQQHPGKAPKLMIYDVSERPSGVPDRFSGSKSGNTASLTISGLQAEDEADYYCCSYAGSYTWVFGGGTKLTVL
